Results published in patent publication EP2843044A1, “Improved variant of D-psicose 3-epimerase and uses thereof” (Roquette Frères, priority 2013, dated 2015).
Substitutions are numbered along the chain they refer to. Numbers in names are those of the source.

B1: D-psicose 3-epimerase (DPEase) from Clostridium cellulolyticum, variant G211S, SEQ ID No 4 (Ruminiclostridium cellulolyticum H10; G211S) (protein)
chain: MKHGIYYAYWEQEWEADYKYYIEKVAKLGFDILEIAASPLPFYSDIQINELKACAHGNGITLTVGHGPSAEQNLSSPDPDIRKNAKAFYTDLLKRLYKLDVHLIGGALYSYWPIDYTKTIDKKGDWERSVESVREVAKVAEACGVDFCLEVLNRFENYLINTAQEGVDFVKQVDHNNVKVMLDTFHMNIEEDSIGGAIRTAGSYLGHLHTSECNRKVPGRGRIPWVEIGEALADIGYNGSVVMEPFVRMGGTVGSNIKVWRDISNGADEKMLDREAQAALDFSRYVLECHKHS
notes: made in house; host or cells: Bacillus subtilis WB600 (pMA5)
B2: D-psicose 3-epimerase (DPEase) from Clostridium cellulolyticum, variant G211A (Ruminiclostridium cellulolyticum H10; G211A) (protein)
chain: B1 chain with S211A
notes: as for B1
B3: D-psicose 3-epimerase (DPEase) from Clostridium cellulolyticum, variant G211W (Ruminiclostridium cellulolyticum H10; G211W) (protein)
chain: B1 chain with S211W
notes: as for B1
B4: D-psicose 3-epimerase (DPEase) from Clostridium cellulolyticum, variant G211D (Ruminiclostridium cellulolyticum H10; G211D) (protein)
chain: B1 chain with S211D
notes: as for B1
B5: D-psicose 3-epimerase (DPEase) from Clostridium cellulolyticum, wild type, SEQ ID No 2 (Ruminiclostridium cellulolyticum H10) (protein)
chain: B1 chain with S211G
notes: as for B1
B6: D-psicose 3-epimerase (DPEase) from Clostridium cellulolyticum, variant G211R (Ruminiclostridium cellulolyticum H10; G211R) (protein)
chain: B1 chain with S211R
notes: made in house
B7: D-psicose 3-epimerase (DPEase) from Clostridium cellulolyticum, variant G211L (Ruminiclostridium cellulolyticum H10; G211L) (protein)
chain: B1 chain with S211L
notes: as for B1

Substrate: O=C(CO)[C@@H](O)[C@H](O)[C@H](O)CO
Test: Determination of kinetic parameters of DPEase (HPLC assay of D-psicose formed)
Format: biochemical, Clostridium cellulolyticum
Details: other: 50 mM Tris-HCl buffer (pH 8.0), 0.1mM Co^2+, 5-200mM substrate, 55 °C
Method: Kinetic parameters of DPEase variants were determined in 50 mM Tris-HCl buffer (pH 8.0) containing 0.1mM Co^2+ and 5-200mM substrate for reaction at 55 °C. The enzyme reactions were stopped after 10 min by boiling, and the amount of D-psicose was determined by the HPLC assay. Kinetic parameters, such as the Michaelis-Menten constant (Km) and turnover number (kcat) values for substrates, were obtained using the Lineweaver-Burk equation and quantification of enzyme concentration.
The concentrations of D-fructose and D-psicose were analyzed by HPLC equipped with a refractive index detector and a Ca^2+-carbohydrate column (Waters Sugar-Pak 1, Waters Corp., Milford, MA), which was eluted with water at 85 °C and 0.4 mL/min. Protein concentration was determined according to the method of Bradford using bovine serum albumin as a standard. SDS-PAGE was carried out according to the method of Laemmli. Gels (12% w/v polyacrylamide) were stained with Coomassie Brilliant Blue and destained with an aqueous mixture of 10% (v/v) methanol/10% (v/v) acetic acid. Table 1: Enzyme properties and kinetic parameters of the wild-type and mutant enzymes of DPEase from C. cellulolyticum for substrate D-psicose

Protein | kcat/Km [mM^-1 min ^-1]
B1 | 150.6
B2 | 9.8
B3 | 68.1
B4 | 86.7
B5 | 62.7
B6 | 26.5
B7 | 73.2
